What was measured:
[1] = target: T1, GST-MAT1-1-1;GST-MAT1-2-1 (Penicillium chrysogenum;Penicillium …, UniProt B1GVB9;B1GVC0 1-342;1-303, |); assay: EMSA; 4 uM each protein; slower migrating complex; EMSA: 20 ul reaction, 20 min at room temperature, native 4% polyacrylamide gel, 120 V 2-3 h; buffer, salt and pH not given (Ramsak et al. 2021 protocol); conditions: protein: recombinant;recombinant; tags: N-terminal GST;N-terminal GST; label: 32P (probe); blunt
T1 sequence 1: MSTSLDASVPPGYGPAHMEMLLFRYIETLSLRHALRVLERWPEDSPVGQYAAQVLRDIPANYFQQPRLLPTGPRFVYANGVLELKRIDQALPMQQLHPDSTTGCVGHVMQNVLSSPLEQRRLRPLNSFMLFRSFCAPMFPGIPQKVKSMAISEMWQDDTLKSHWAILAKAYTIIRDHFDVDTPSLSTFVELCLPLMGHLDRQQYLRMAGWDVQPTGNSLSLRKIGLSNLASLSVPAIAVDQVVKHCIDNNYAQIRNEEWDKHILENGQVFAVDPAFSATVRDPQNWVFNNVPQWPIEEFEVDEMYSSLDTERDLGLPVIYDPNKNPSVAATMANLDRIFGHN
T1 sequence 2: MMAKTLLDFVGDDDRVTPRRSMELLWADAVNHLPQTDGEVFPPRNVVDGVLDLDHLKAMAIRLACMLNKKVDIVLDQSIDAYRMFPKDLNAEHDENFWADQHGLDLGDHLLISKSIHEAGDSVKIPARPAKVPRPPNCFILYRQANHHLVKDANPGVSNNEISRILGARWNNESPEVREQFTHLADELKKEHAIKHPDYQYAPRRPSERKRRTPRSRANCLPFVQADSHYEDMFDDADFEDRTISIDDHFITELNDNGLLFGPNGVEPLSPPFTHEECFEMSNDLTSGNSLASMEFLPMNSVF

GST-MAT1-1-1 = target: T2, GST-MAT1-1-1 (Penicillium chrysogenum, UniProt B1GVB9 1-342); assay: EMSA; 2.5 uM protein; self-competition by unlabelled tom1-2; EMSA: 20 ul reaction, 20 min at room temperature, native 4% polyacrylamide gel, 120 V 2-3 h; buffer, salt and pH not given (Ramsak et al. 2021 protocol); conditions: protein: recombinant; tags: N-terminal GST; chain copies: 2; label: 32P (probe); blunt
T2 sequence: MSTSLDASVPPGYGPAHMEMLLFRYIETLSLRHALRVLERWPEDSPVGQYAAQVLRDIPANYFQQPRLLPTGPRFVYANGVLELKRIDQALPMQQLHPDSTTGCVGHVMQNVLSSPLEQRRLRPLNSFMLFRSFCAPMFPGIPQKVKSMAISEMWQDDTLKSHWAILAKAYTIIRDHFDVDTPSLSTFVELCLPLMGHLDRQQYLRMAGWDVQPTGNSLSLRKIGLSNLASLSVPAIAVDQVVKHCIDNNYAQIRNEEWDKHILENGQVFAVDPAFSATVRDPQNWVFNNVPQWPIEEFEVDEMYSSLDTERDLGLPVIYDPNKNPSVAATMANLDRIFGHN

[2] = target: T3, GST-MAT1-1-1;MAT1-2-1 (GST removed) (Penicillium chrysogenum;Penicillium …, UniProt B1GVB9;B1GVC0 1-342;1-303, |); assay: EMSA; 4 uM each protein; complex faster than with GST-MAT1-2-1; EMSA: 20 ul reaction, 20 min at room temperature, native 4% polyacrylamide gel, 120 V 2-3 h; buffer, salt and pH not given (Ramsak et al. 2021 protocol); conditions: protein: recombinant;recombinant; tags: N-terminal GST;none (GST removed by TEV protease); label: 32P (probe); blunt
T3 sequence 1: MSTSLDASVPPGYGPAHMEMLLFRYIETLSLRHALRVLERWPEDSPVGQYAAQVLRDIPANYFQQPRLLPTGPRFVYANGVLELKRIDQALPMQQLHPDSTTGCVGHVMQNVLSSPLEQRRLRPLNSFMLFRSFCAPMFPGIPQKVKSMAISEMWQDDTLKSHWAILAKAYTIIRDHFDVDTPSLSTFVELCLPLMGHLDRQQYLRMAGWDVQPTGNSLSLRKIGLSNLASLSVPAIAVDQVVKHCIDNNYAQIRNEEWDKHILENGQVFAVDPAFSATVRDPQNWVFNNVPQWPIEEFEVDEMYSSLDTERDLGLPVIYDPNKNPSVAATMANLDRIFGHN
T3 sequence 2: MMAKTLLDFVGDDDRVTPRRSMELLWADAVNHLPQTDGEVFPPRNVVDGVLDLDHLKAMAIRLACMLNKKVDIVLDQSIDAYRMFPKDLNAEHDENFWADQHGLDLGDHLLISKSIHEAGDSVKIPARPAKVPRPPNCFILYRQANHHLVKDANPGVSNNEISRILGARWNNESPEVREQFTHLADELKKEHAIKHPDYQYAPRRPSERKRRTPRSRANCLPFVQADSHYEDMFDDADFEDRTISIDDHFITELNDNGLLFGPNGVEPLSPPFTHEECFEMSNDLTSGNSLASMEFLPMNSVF

GST-MAT1-2-1 = target: T4, GST-MAT1-2-1 (Penicillium chrysogenum PC3, UniProt B1GVC0 1-303); assay: EMSA; 7 uM protein; more protein needed than for GST-MAT1-1-1; self-competition by unlabelled tom1-2; EMSA: 20 ul reaction, 20 min at room temperature, native 4% polyacrylamide gel, 120 V 2-3 h; buffer, salt and pH not given (Ramsak et al. 2021 protocol); conditions: protein: recombinant; tags: N-terminal GST; label: 32P (probe); blunt
T4 sequence: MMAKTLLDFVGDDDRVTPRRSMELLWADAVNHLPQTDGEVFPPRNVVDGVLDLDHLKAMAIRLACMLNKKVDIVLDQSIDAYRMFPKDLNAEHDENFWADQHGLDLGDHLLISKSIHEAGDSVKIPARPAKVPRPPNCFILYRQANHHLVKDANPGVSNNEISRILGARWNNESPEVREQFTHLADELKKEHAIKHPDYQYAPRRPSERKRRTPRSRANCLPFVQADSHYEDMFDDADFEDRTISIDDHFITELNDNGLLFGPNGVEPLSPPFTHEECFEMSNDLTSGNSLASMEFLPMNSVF

Measured: binding result

B1: tom1-2 (dsDNA)
DNA 1: TCACGTGATCTCTATTGAGAACAATAGAA
DNA 2: TTCTATTGTTCTCAATAGAGATCACGTGA
binds: all assays above
